According to PMC2756588:

Tests used:
Assay in all cases: SPOT array
Abp1, P15891 = molecular target: T1, Abp1, P15891; details: median of control spots 935
T1 sequence (P15891 535-592, looked up): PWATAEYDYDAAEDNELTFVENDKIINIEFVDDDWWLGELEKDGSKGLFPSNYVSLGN

Bbc1, P47068 = molecular target: T2, Bbc1, P47068; details: median of control spots 796
T2 sequence (P47068 1-78, looked up): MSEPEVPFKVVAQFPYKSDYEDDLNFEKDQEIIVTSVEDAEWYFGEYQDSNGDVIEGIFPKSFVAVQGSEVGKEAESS

Bem1-1, P29366 = details: median of control spots 4282
Chain of Bem1-1, P29366 (P29366 55-141): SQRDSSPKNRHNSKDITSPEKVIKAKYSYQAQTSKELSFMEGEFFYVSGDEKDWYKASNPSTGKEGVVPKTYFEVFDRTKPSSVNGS

Bem1-2, P29366 = details: median of control spots 4347
Chain of Bem1-2, P29366 (P29366 139-227): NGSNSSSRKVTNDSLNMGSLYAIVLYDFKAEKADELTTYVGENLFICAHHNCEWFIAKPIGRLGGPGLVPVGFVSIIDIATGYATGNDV

Boi1, P38041 = molecular target: T3, Boi1, P38041; details: median of control spots 1162
T3 sequence (P38041 1-86, looked up): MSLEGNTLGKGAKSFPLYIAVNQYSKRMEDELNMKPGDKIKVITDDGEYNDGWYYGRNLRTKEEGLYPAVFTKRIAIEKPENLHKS

Boi2, P39969 = molecular target: T4, Boi2, P39969; details: median of control spots 1161
T4 sequence (P39969 32-116, looked up): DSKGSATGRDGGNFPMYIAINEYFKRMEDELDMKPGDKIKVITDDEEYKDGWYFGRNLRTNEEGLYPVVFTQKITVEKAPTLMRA

Bud14, P27637 = molecular target: T5, Bud14, P27637; details: median of control spots 956
T5 sequence (P27637 247-328, looked up): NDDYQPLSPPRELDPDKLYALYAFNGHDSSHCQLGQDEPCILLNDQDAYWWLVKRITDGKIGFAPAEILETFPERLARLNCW

Bzz1-1, P38822 = molecular target: T6, Bzz1-1, P38822; details: median of control spots 4446
T6 sequence (P38822 478-572, looked up): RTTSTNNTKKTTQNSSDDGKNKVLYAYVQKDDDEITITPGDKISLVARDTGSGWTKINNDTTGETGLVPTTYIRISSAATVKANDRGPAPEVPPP

Bzz1-2, P38822 = molecular target: T7, Bzz1-2, P38822; details: median of control spots 4538
T7 sequence (P38822 568-633, looked up): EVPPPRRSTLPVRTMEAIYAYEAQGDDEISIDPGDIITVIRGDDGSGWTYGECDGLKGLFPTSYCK

Cdc25, P04821 = molecular target: T8, Cdc25, P04821; details: median of control spots 969
T8 sequence (P04821 50-136, looked up): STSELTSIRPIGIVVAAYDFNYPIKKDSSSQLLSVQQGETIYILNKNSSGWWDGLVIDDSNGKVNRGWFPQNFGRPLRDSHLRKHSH

Cyk3, Q07533 = molecular target: T9, Cyk3, Q07533; details: median of control spots 1451
T9 sequence (Q07533 1-83, looked up): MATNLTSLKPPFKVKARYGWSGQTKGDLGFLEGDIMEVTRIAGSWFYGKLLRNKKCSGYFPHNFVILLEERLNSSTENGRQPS

Fus1, P11710 = molecular target: T10, Fus1, P11710; details: median of control spots 1200
T10 sequence (P11710 432-512, looked up): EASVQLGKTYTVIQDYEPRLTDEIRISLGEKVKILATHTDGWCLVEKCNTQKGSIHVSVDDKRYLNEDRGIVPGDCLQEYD

GST = details: median of control spots 978
Hof1, Q05080 = molecular target: T11, Hof1, Q05080; details: median of control spots 4086
T11 sequence (Q05080 590-669, looked up): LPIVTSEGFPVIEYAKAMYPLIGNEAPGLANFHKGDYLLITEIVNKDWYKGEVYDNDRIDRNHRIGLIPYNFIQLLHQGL

Hse1, P38753 = molecular target: T12, Hse1, P38753; details: median of control spots 1727
T12 sequence (P38753 208-285, looked up): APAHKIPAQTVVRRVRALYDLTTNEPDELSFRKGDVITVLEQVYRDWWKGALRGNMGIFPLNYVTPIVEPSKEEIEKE

Lsb1, P53281 = molecular target: T13, Lsb1, P53281; details: median of control spots 388
T13 sequence (P53281 45-122, looked up): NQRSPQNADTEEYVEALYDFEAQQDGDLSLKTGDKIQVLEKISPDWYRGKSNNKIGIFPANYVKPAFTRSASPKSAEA

Lsb3, P43603 = molecular target: T14, Lsb3, P43603; details: median of control spots 406
T14 sequence (P43603 385-451, looked up): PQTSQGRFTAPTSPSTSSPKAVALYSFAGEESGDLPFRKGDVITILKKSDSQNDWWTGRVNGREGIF

Lsb4, P32793 = molecular target: T15, Lsb4, P32793; details: median of control spots 397
T15 sequence (P32793 402-468, looked up): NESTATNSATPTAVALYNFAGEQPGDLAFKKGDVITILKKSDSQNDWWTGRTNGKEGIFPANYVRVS

Myo3, P36006 = details: median of control spots 468
Myo5, Q04439 = molecular target: T16, Myo5, Q04439; details: median of control spots 471
T16 sequence (Q04439 1072-1160, looked up): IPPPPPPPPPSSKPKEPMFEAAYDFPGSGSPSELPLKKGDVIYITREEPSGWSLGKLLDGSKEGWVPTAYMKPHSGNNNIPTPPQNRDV

Nbp2, Q12163 = molecular target: T17, Nbp2, Q12163; details: median of control spots 357
T17 sequence (Q12163 103-180, looked up): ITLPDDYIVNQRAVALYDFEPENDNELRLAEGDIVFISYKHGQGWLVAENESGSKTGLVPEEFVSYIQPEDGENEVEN

Pex13, P80667 = molecular target: T18, Pex13, P80667; details: median of control spots 1341
T18 sequence (P80667 295-386, looked up): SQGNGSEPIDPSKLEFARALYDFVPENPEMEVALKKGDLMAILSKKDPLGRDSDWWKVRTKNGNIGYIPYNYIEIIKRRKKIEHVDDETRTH

Pin3, Q06449 = molecular target: T19, Pin3, Q06449; details: median of control spots 2171
T19 sequence (Q06449 53-122, looked up): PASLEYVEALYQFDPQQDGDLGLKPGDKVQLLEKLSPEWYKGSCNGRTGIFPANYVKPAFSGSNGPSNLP

Rvs167, P39743 = details: median of control spots 2707
Chain of Rvs167, P39743 (P39743 419-482): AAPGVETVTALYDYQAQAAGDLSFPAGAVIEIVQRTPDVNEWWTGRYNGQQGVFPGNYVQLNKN

Sho1, P40073 = details: median of control spots 1148
Chain of Sho1, P40073 (P40073 287-367): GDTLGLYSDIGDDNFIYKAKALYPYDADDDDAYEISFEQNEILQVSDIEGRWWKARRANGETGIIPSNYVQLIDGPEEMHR

Sla1-2, P32790 = molecular target: T20, Sla1-2, P32790; details: median of control spots 712
T20 sequence (P32790 60-140, looked up): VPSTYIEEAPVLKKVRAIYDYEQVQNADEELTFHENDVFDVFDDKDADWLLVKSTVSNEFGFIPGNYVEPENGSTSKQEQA

Sla1-3, P32790 = molecular target: T21, Sla1-3, P32790; details: median of control spots 5475
T21 sequence (P32790 344-424, looked up): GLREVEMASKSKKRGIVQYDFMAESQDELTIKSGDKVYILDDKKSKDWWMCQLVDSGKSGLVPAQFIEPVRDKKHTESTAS

Binder: KRNRLKILLPFLEQS
- SPOT intensity (Abp1, P15891): 64
- SPOT intensity (Bbc1, P47068): 46
- SPOT intensity (Bem1-1, P29366): 0
- SPOT intensity (Bem1-2, P29366): 0
- SPOT intensity (Boi1, P38041): 9
- SPOT intensity (Boi2, P39969): 3
- SPOT intensity (Bud14, P27637): 8
- SPOT intensity (Bzz1-1, P38822): 0
- SPOT intensity (Bzz1-2, P38822): 0
- SPOT intensity (Cdc25, P04821): 28
- SPOT intensity (Cyk3, Q07533): 14
- SPOT intensity (Fus1, P11710): 169
- SPOT intensity (GST): 5
- SPOT intensity (Hof1, Q05080): 6
- SPOT intensity (Hse1, P38753): 25
- SPOT intensity (Lsb1, P53281): 34
- SPOT intensity (Lsb3, P43603): 2
- SPOT intensity (Lsb4, P32793): 0
- SPOT intensity (Myo3, P36006): 10
- SPOT intensity (Myo5, Q04439): 0
- SPOT intensity (Nbp2, Q12163): 22
- SPOT intensity (Pex13, P80667): 11
- SPOT intensity (Pin3, Q06449): 17
- SPOT intensity (Rvs167, P39743): 0
- SPOT intensity (Sho1, P40073): 81
- SPOT intensity (Sla1-2, P32790): 0
- SPOT intensity (Sla1-3, P32790): 49

Binder: RVRKTHVPASKRPSG
- SPOT intensity (Abp1, P15891): 64
- SPOT intensity (Bbc1, P47068): 11
- SPOT intensity (Bem1-1, P29366): 0
- SPOT intensity (Bem1-2, P29366): 0
- SPOT intensity (Boi1, P38041): 1
- SPOT intensity (Boi2, P39969): 1
- SPOT intensity (Bud14, P27637): 5
- SPOT intensity (Bzz1-1, P38822): 0
- SPOT intensity (Bzz1-2, P38822): 0
- SPOT intensity (Cdc25, P04821): 0
- SPOT intensity (Cyk3, Q07533): 3
- SPOT intensity (Fus1, P11710): 5
- SPOT intensity (GST): 2
- SPOT intensity (Hof1, Q05080): 0
- SPOT intensity (Hse1, P38753): 2
- SPOT intensity (Lsb1, P53281): 0
- SPOT intensity (Lsb3, P43603): 0
- SPOT intensity (Lsb4, P32793): 1
- SPOT intensity (Myo3, P36006): 1
- SPOT intensity (Myo5, Q04439): 0
- SPOT intensity (Nbp2, Q12163): 0
- SPOT intensity (Pex13, P80667): 0
- SPOT intensity (Pin3, Q06449): 1
- SPOT intensity (Rvs167, P39743): 0
- SPOT intensity (Sho1, P40073): 124
- SPOT intensity (Sla1-2, P32790): 1
- SPOT intensity (Sla1-3, P32790): 6

Binder: LSKRLPLRFPEHTSS
- SPOT intensity (Abp1, P15891): 22
- SPOT intensity (Bbc1, P47068): 2
- SPOT intensity (Bem1-1, P29366): 0
- SPOT intensity (Bem1-2, P29366): 4
- SPOT intensity (Boi1, P38041): 0
- SPOT intensity (Boi2, P39969): 0
- SPOT intensity (Bud14, P27637): 1
- SPOT intensity (Bzz1-1, P38822): 0
- SPOT intensity (Bzz1-2, P38822): 7
- SPOT intensity (Cdc25, P04821): 3
- SPOT intensity (Cyk3, Q07533): 0
- SPOT intensity (Fus1, P11710): 1
- SPOT intensity (GST): 0
- SPOT intensity (Hof1, Q05080): 25
- SPOT intensity (Hse1, P38753): 101
- SPOT intensity (Lsb1, P53281): 1
- SPOT intensity (Lsb3, P43603): 0
- SPOT intensity (Lsb4, P32793): 4
- SPOT intensity (Myo3, P36006): 0
- SPOT intensity (Myo5, Q04439): 0
- SPOT intensity (Nbp2, Q12163): 2
- SPOT intensity (Pex13, P80667): 3
- SPOT intensity (Pin3, Q06449): 0
- SPOT intensity (Rvs167, P39743): 0
- SPOT intensity (Sho1, P40073): 29
- SPOT intensity (Sla1-2, P32790): 0
- SPOT intensity (Sla1-3, P32790): 24

Binder: YRRKSIPFAPHQITA
- SPOT intensity (Abp1, P15891): 12
- SPOT intensity (Bbc1, P47068): 2
- SPOT intensity (Bem1-1, P29366): 0
- SPOT intensity (Bem1-2, P29366): 3
- SPOT intensity (Boi1, P38041): 0
- SPOT intensity (Boi2, P39969): 1
- SPOT intensity (Bud14, P27637): 0
- SPOT intensity (Bzz1-1, P38822): 0
- SPOT intensity (Bzz1-2, P38822): 5
- SPOT intensity (Cdc25, P04821): 2
- SPOT intensity (Cyk3, Q07533): 0
- SPOT intensity (Fus1, P11710): 2
- SPOT intensity (GST): 1
- SPOT intensity (Hof1, Q05080): 5
- SPOT intensity (Hse1, P38753): 9
- SPOT intensity (Lsb1, P53281): 8
- SPOT intensity (Lsb3, P43603): 0
- SPOT intensity (Lsb4, P32793): 2
- SPOT intensity (Myo3, P36006): 0
- SPOT intensity (Myo5, Q04439): 0
- SPOT intensity (Nbp2, Q12163): 0
- SPOT intensity (Pex13, P80667): 10
- SPOT intensity (Pin3, Q06449): 9
- SPOT intensity (Rvs167, P39743): 0
- SPOT intensity (Sho1, P40073): 17
- SPOT intensity (Sla1-2, P32790): 0
- SPOT intensity (Sla1-3, P32790): 28
